In patent publication US20240425589A1, “CYTOTOXICITY-INDUCING THERAPEUTIC AGENT FOR USE IN TREATMENT OF CANCER” (CHUGAI SEIYAKU KABUSHIKI KAISHA, priority 2021, published 2024):

Columns and labels:
[1] = molecular target: T1, recombinant cyno CD3eg (Macaca fascicularis, UniProt Q95LI5); experiment: Biacore 8K SPR affinity to cyno CD3eg; format: binding, cynomolgus; details: 25 degree C, pH 7.4
T1 sequence (Q95LI5 22-117 limits assumed): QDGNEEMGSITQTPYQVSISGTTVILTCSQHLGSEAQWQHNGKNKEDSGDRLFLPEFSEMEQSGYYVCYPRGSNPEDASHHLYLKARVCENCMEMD
T1 sequence (Q95LI7 23-115 partner limits assumed): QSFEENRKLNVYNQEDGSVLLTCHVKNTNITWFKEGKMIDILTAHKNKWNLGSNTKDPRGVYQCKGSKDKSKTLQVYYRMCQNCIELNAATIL
Description: (§1) The binding affinity of the anti-CLDN6/Dual-Fab tri-specific antibody against recombinant human and cyno CD3eg (gamma and epsilon subunits of CD3) at pH 7.4 was determined at 25 degree C. using Biacore 8K instrument (GE Healthcare). The binding affinity of the anti-CLDN6/Dual-Fab tri-specific antibody against recombinant human and cyno CD137 at pH 7.4 was determined at 37 degree C. using Biacore 8K instrument (GE Healthcare). Anti-human Fc (GE Healthcare) antibody was immobilized onto all flow cells of a CM4 sensor chip using amine coupling kit (GE Healthcare). Tested antibody and analytes were prepared in ACES pH 7.4 containing 20 mM ACES, 150 mM NaCl, 0.05% Tween 20, 0.005% NaN3. Anti-CLDN6/Dual-Fab tri-specific antibody was captured onto the sensor surface by anti-human Fc. Antibody capture levels were aimed at 300 resonance unit (RU). Recombinant CD3eg and CD137 were injected at both 500 and 2000 nM, followed by dissociation. Sensor surface was regenerated each cycle with 3M MgCl2. […] Binding affinities were determined by processing and fitting the data to 1:1 binding model using Biacore Insight Evaluation software (GE Healthcare).

[2] = molecular target: recombinant human CD3eg (Homo sapiens, UniProt P07766+P09693); experiment: Biacore 8K SPR affinity to human CD3eg; format: binding; details: 25 degree C, pH 7.4
Description: as §1

[3] = system: MC38/CLDN6; experiment: xCELLigence mechanism assay with KLH/CD137 bispecific antibody; format: cell-based, mouse; details: 1 nM
Description: The mechanism of T-cell dependent growth inhibition mediated by the anti-CLDN6/Dual-Fab tri-specific antibodies was assessed by cell proliferation assay using an xCELLigence RTCA MP instrument (ACEA Biosciences).
Mouse colon cancer cell line MC38/CLDN6 expressing human CLDN6 was used as target cells. Spleens were collected aseptically from hCD3 transgenic mice and hCD3/hCD137 knock-in mice. The spleen was ground in RPMI-1640 medium containing 10% FBS, passed through a 70-μm cell strainer, and then centrifuged (at 1200 rpm for 10 minutes at room temperature) to isolate spleen cells. The isolated spleen cells were hemolyzed, then T cells alone were isolated using CD3 MicroBeads (Miltenyi Biotec), and used as effector cells.
The background was measured by adding the culture medium to an E-Plate 96 plate (Roche Diagnostics) at 50 μL/well, and then 5×10^3 target cells were plated at 50 μL/well. After culturing overnight, 1 nM (final concentration) of CS4135 together with the KLH/CD137 bispecific antibody at a concentration selected from 100 nM or 500 nM (final concentration) were added at 25 μL/well, respectively. […] Cell growth was monitored every 10 min using xCELLigence over 48 hours during the incubation of the plates. The rate of cell growth inhibition (CGI: %) was determined from the cell index value according to the following formula: […]

[4] = molecular target: T2, recombinant human CD137 (Homo sapiens, UniProt Q07011); experiment: Biacore 8K SPR affinity to human CD137; format: binding; details: human CD137, 37 degree C, pH 7.4
T2 construct: made in house; host or cells: FreeStyle293F
Description: as §1

[5] = system: OV-90; experiment: LDH release cytotoxicity on olaparib-treated OV-90; format: cell-based; details: OV-90, olaparib 3 μM three days vs DMSO, human PBMC
Description: The effect of the enhanced induction of CLDN6 expression in BRCA1-deficient ovarian cancer cell line UWB1.289, caused by the PARP inhibitor (olaparib), on the cytotoxic activity of anti-CLDN6/Dual-Fab tri-specific antibody CS4135 was assessed.
BRCA1-deficient ovarian cancer cell line UWB1.289 (ATCC) or BRAC1 wildtype ovarian cancer cell line OV-90 (ATCC) which express human CLDN6 were used as target cells.
Each target cell (3×10^5 cells) were seeded at 5 mL into a 25 cm^2-flask. Two flasks were prepared for each target cell. After culturing overnight, olaparib was added at a final concentration of 3 μM to one of the two flasks. DMSO was added to the other flask. After incubating the flasks for three days, the target cells were recovered, and the cytotoxic activity of the CS4135 antibody was evaluated by […] (LDH) release assay using human PBMC as the effector cell.

[6] = system: OV-90; experiment: Mouse peritoneal dissemination model; format: in vivo, NOD/ShiJic-scid Jcl mice; details: 5 mg/kg iv
Description: To evaluate the effect of anti-CLDN6/Dual-Fab tri-specific antibody CS4135 (the same antibody as PPU4135 described in Table 9 of Example 6 described above) against peritoneal metastasis of ovary cancer, the drug efficacy was evaluated using a mouse peritoneal dissemination model. Human ovarian cancer cell line OV-90 (ATCC) was used as target cells. OV-90 cells were transplanted intraperitoneally to NOD/ShiJic-scid Jcl mice at 5×10^6 cells/500 μL/animal. Three days after transplantation, human T cells separated from human PBMC and expansively cultured using Dynabeads Human T-Activator CD3/CD28 (Gibco) were administered intravenously at 3×10^7 cells/400 μL. Furthermore, the vehicle (PBS containing 0.05% Tween-20) or a CS4135 antibody solution at 5 mg/kg was administered intravenously.
After tumor transplantation, the mice were observed every 2 to 7 days, and the conditions of the mice were assessed according to the humane endpoint guideline.

Chain of recombinant human CD3eg (P07766+P09693 fused): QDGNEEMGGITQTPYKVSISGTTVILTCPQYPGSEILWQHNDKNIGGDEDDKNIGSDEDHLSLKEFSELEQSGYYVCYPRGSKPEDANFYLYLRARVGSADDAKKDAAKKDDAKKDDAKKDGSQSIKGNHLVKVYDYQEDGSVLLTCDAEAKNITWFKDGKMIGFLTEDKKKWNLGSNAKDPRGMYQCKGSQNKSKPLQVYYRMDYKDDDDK
T2 sequence (Q07011 with tags, fused parts or gaps): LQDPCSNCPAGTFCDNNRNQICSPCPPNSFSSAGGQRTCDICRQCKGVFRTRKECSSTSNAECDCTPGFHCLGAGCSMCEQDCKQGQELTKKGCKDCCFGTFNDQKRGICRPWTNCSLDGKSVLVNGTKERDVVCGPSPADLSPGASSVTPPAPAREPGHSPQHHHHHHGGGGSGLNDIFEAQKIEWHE

B1: PPU4135: anti-CLDN6/Dual-Fab tri-specific antibody, chains SEQ ID NOs 42, 51, 56, 69; CS4135 same antibody (protein)
chain 1: QVQLVESGGGVVQPGGSLRLSCAASGFTFSSYTMSWVRQAPGQGLEWMGTISSGGGRTYYPDSVKGRFTISRDNSKNTLYLQMNSLRDEDTAVYYCARGDYRYDGFAYWGEGTLVTVSSASTKGPSVFPLAPSSKSTSGGTAALGCLVEDYFPEPVTVSWNSGALTSGVHTFPAVLESSGLYSLSSVVTVPSSSLGTQTYICNVNHKPSNTKVDKRVEPKSCDKTHTCPPCPAPEAAGGPSVFLFPPKPKDTLMISRTPEVTCVVVDVSHEDPEVKFNWYVDGVEVHNAKTKPREEQYASTYRVVSVLTVLHQDWLNGKEYKCKVSNKALPAPIEKTISKAKGQPREPQVYTLPPSREEMTKNQVSLTCLVKGFYPSDIAVEWESNGQPENNYKTTPPVLDSDGSFFLYSKLTVDKSRWQQGNVFSCSVMHEALHNHYTQESLSLSP
chain 2: DIQMTQSPSSLSASVGDRVTITCRASYNIDSYLAWYQQKPGKAPELLIYYSTLLVDGVPDRFSGSRSGTDFTLTISSLQPEDFATYYCQHYYSIPYTFGQGTKVEIERTVAAPSVFIFPPSDEQLKSGTAKVVCLLNNFYPREAKVQWKVDNALQSGNSKESVTEQDSKDSTYSLSSTLTLSKADYEKHKVYACEVTHQGLSSPVTKSFNRGEC
chain 3: QVQLVESGGGLVQPGRSLRLSCAASGFKFSNVWFHWVRQAPGKGLEWVAQIKDYYNAYAAYYAPSVKGRFTISRDDSKNSIYLQMNSLKTEDTAVYYCHYVHYASASTLLPAEGVDAWGQGTTVTVSSASTKGPSVFPLAPSSKSTSGGTAALGCLVKDYFPEPVTVSWNSGALTSGVHTFPAVLKSSGLYSLSSVVTVPSSSLGTQTYICNVNHKPSNTKVDKRVEPKSCDKTHTCPPCPAPEAAGGPSVFLFPPKPKDTLMISRTPEVTCVVVDVSHEDPEVKFNWYVDGVEVHNAKTKPREEQYASTYRVVSVLTVLHQDWLNGKEYKCKVSNKALPAPIEKTISKAKGQPREPQVYTLPPSRKEMTKNQVSLTCLVKGFYPSDIAVEWESNGQPENNYKTTPPVLDSDGSFFLYSKLTVDKSRWQQGNVFSCSVMHEALHNHYTQKSLSLSP
chain 4: DIVMTQSPLSLPVTPGEPASISCQPSQEVVHMNRNTYLHWYQQKPGQAPRLLIYKVSNRFPGVPDRFSGSGSGTDFTLKISRVEAEDVGVYYCAQGTSHPFTFGQGTKLEIKRTVAAPSVFIFPPSDEQLKSGTAEVVCLLNNFYPREAKVQWKVDNALQSGNSEESVTEQDSKDSTYSLSSTLTLSKADYEKHKVYACEVTHQGLSSPVTKSFNRGEC
ka [1]: 101000 M⁻¹ s⁻¹
kd [1]: 0.0332 s⁻¹
ka [2]: 78000 M⁻¹ s⁻¹
kd [2]: 0.0266 s⁻¹
cell growth inhibition rate ([3]; T cells from hCD3/hCD137 knock-in mice vs hCD3 transgenic mice, no KLH/CD137 bispecific antibody): significantly higher
cell growth inhibition rate ([3]; hCD3/hCD137 knock-in T cells, 500 nM KLH/CD137 bispecific antibody added): decreased to the same level as when using hCD3 transgenic mice-derived T cells
ka [4]: 12600 M⁻¹ s⁻¹
kd [4]: 0.000591 s⁻¹
cytotoxic activity after addition of olaparib [5]: no effect on cytotoxic activity
50% survival rate found [6]: 71 days after transplantation
mice showing aggravated conditions observed from ([6]; vehicle from 48 days): 57 days after transplantation
survival rate ([6]; 66 days after transplantation): 78%
survival rate ([6]; 80 days after transplantation): 22%
